# Test results reported in the supplement of paper PMC11316812.
# ± gives the standard deviation of the averaged measurements.
# Columns and labels:
# MCF7 = test: percentage of EdU-negative (G0-arrested) nuclei per well, 72 h; higher = more G0 arrest; settings: reference: sequence is the full UniProt precursor, the tested protein was the secreted form or ectodomain
# hTERT-HMEC = test: as above; settings: reference: sequence is the full UniProt precursor, the tested protein was the secreted form or ectodomain
# [1] = protein concentration 0.0225 µM
# [2] = protein concentration 0.0119275 µM
# [3] = protein concentration 0.119275 µM
# [4] = protein concentration 0.018725 µM
# [5] = protein concentration 0.18725 µM
# [6] = protein concentration 0.02382 µM
# [7] = protein concentration 0.03125 µM
# [8] = protein concentration 0.2382 µM
# [9] = protein concentration 0.3125 µM
# [10] = protein concentration 0.0175 µM
# 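Further: secreted proteins added to cultured cells, EdU pulse at the end, nuclei found by Hoechst imaging, EdU status from nuclear versus surrounding ring intensity ratio, PBS as neutral control.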
Sequence,percentage of EdU-negative (MCF7; [1]) [%],percentage of EdU-negative (MCF7; protein concentration 0.225 µM) [%],percentage of EdU-negative (hTERT-HMEC; [1]) [%],percentage of EdU-negative (hTERT-HMEC; protein concentration 0.225 µM) [%],other results
MQMPAMMSLLLVSVGLMEALQAQSHPITRRDLFSQEIQLDMALASFDDQYAGCAAAMTAALPDLNHTEFQANQVYADSWTLASSQWQERQARWPEWSLSPTRPSPPPLGFRDEHGVALLAYTANSPLHKEFNAAVREAGRSRAHYLHHFSFKTLHFLLTEALQLLGSGQRPPRCHQVFRGVHGLRFRPAGPRATVRLGGFASASLKHVAAQQFGEDTFFGIWTCLGAPIKGYSFFPGEEEVLIPPFETFQVINASRLAQGPARIYLRALGKHSTYNCEYIKDKKCKSGPCHLDNSAMGQSPLSAVWSLLLLLWFLVVRAFPDGPGLL,23.7 ± 1.5,25 ± 0.33,5.126 ± 0.0053,6.16 ± 2.3,–
MQPLWLCWALWVLPLASPGAALTGEQLLGSLLRQLQLKEVPTLDRADMEELVIPTHVRAQYVALLQRSHGDRSRGKRFSQSFREVAGRFLALEASTHLLVFGMEQRLPPNSELVQAVLRLFQEPVPKAALHRHGRLSPRSARARVTVEWLRVRDDGSNRTSLIDSRLVSVHESGWKAFDVTEAVNFWQQLSRPRQPLLLQVSVQREHLGPLASGAHKLVRFASQGAPAGLGEPQLELHTLDLGDYGAQGDCDPEAPMTEGTRCCRQEMYIDLQGMKWAENWVLEPPGFLAYECVGTCRQPPEALAFKWPFLGPRQCIASETDSLPMIVSIKEGGRTRPQVVSLPNMRVQKCSCASDGALVPRRLQP,–,–,–,–,percentage of EdU-negative (MCF7; [2]): 25.8 ± 0.59%; percentage of EdU-negative (MCF7; [3]): 26.51 ± 0.11%; percentage of EdU-negative (hTERT-HMEC; [2]): 5.05 ± 0.39%; percentage of EdU-negative (hTERT-HMEC; [3]): 5.49 ± 0.4%
MQPPRERLVVTGRAGWMGMGRGAGRSALGFWPTLAFLLCSFPAATSPCKILKCNSEFWSATSGSHAPASDDTPEFCAALRSYALCTRRTARTCRGDLAYHSAVHGIEDLMSQHNCSKDGPTSQPRLRTLPPAGDSQERSDSPEICHYEKSFHKHSATPNYTHCGLFGDPHLRTFTDRFQTCKVQGAWPLIDNNYLNVQVTNTPVLPGSAATATSKLTIIFKNFQECVDQKVYQAEMDELPAAFVDGSKNGGDKHGANSLKITEKVSGQHVEIQAKYIGTTIVVRQVGRYLTFAVRMPEEVVNAVEDWDSQGLYLCLRGCPLNQQIDFQAFHTNAEGTGARRLAAASPAPTAPETFPYETAVAKCKEKLPVEDLYYQACVFDLLTTGDVNFTLAAYYALEDVKMLHSNKDKLHLYERTRDLPGRAAAGLPLAPRPLLGALVPLLALLPVFC [Q96B86],25.3 ± 1.1,26.4 ± 2,5.15 ± 0.82,6.53 ± 1.7,–
MQPRRQRLPAPWSGPRGPRPTAPLLALLLLLAPVAAPAGSGDPDDPGQPQDAGVPRRLLQQAARAALHFFNFRSGSPSALRVLAEVQEGRAWINPKEGCKVHVVFSTERYNPESLLQEGEGRLGKCSARVFFKNQKPRPTINVTCTRLIEKKKRQQEDYLLYKQMKQLKNPLEIVSIPDNHGHIDPSLRLIWDLAFLGSSYVMWEMTTQVSHYYLAQLTSVRQWKTNDDTIDFDYTVLLHELSTQEIIPCRIHLVWYPGKPLKVKYHCQELQTPEEASGTEEGSAVVPTELSNF,24.2 ± 1.8,28 ± 0.37,5.08 ± 0.6,4.8 ± 0.36,–
MQPRTPLVLCVLLSQVLLLTSAEDLDCTPGFQQKVFHINQPAEFIEDQSILNLTFSDCKGNDKLRYEVSSPYFKVNSDGGLVALRNITAVGKTLFVHARTPHAEDMAELVIVGGKDIQGSLQDIFKFARTSPVPRQKRSIVVSPILIPENQRQPFPRDVGKVVDSDRPERSKFRLTGKGVDQEPKGIFRINENTGSVSVTRTLDREVIAVYQLFVETTDVNGKTLEGPVPLEVIVIDQNDNRPIFREGPYIGHVMEGSPTGTTVMRMTAFDADDPATDNALLRYNIRQQTPDKPSPNMFYIDPEKGDIVTVVSPALLDRETLENPKYELIIEAQDMAGLDVGLTGTATATIMIDDKNDHSPKFTKKEFQATVEEGAVGVIVNLTVEDKDDPTTGAWRAAYTIINGNPGQSFEIHTNPQTNEGMLSVVKPLDYEISAFHTLLIKVENEDPLVPDVSYGPSSTATVHITVLDVNEGPVFYPDPMMVTRQEDLSVGSVLLTVNATDPDSLQHQTIRYSVYKDPAGWLNINPINGTVDTTAVLDRESPFVDNSVYTALFLAIDSGNPPATGTGTLLITLEDVNDNAPFIYPTVAEVCDDAKNLSVVILGASDKDLHPNTDPFKFEIHKQAVPDKVWKISKINNTHALVSLLQNLNKANYNLPIMVTDSGKPPMTNITDLRVQVCSCRNSKVDCNAAGALRFSLPSVLLLSLFSLACL,24.7 ± 1.2,27.1 ± 0.61,4.14 ± 0.25,9.2557 ± 0.0081,–
MQPTGREGSRALSRRYLRRLLLLLLLLLLRQPVTRAETTPGAPRALSTLGSPSLFTTPGVPSALTTPGLTTPGTPKTLDLRGRAQALMRSFPLVDGHNDLPQVLRQRYKNVLQDVNLRNFSHGQTSLDRLRDGLVGAQFWSASVSCQSQDQTAVRLALEQIDLIHRMCASYSELELVTSAEGLNSSQKLACLIGVEGGHSLDSSLSVLRSFYVLGVRYLTLTFTCSTPWAESSTKFRHHMYTNVSGLTSFGEKVVEELNRLGMMIDLSYASDTLIRRVLEVSQAPVIFSHSAARAVCDNLLNVPDDILQLLKKNGGIVMVTLSMGVLQCNLLANVSTVADHFDHIRAVIGSEFIGIGGNYDGTGRFPQGLEDVSTYPVLIEELLSRSWSEEELQGVLRGNLLRVFRQVEKVREESRAQSPVEAEFPYGQLSTSCHSHLVPQNGHQATHLEVTKQPTNRVPWRSSNASPYLVPGLVAAATIPTFTQWLC [Q9H4B8],26.5 ± 1.8,27.6 ± 3,5.33 ± 1.2,5.49 ± 1.1,–
MQQPFNYPYPQIYWVDSSASSPWAPPGTVLPCPTSVPRRPGQRRPPPPPPPPPLPPPPPPPPLPPLPLPPLKKRGNHSTGLCLLVMFFMVLVALVGLGLGMFQLFHLQKELAELRESTSQMHTASSLEKQIGHPSPPPEKKELRKVAHLTGKSNSRSMPLEWEDTYGIVLLSGVKYKKGGLVINETGLYFVYSKVYFRGQSCNNLPLSHKVYMRNSKYPQDLVMMEGKMMSYCTTGQMWARSSYLGAVFNLTSADHLYVNVSELSLVNFEESQTFFGLYKL,25.2 ± 0.97,29 ± 2.4,4.44 ± 0.26,7.46 ± 2.2,–
MQRGAALCLRLWLCLGLLDGLVSGYSMTPPTLNITEESHVIDTGDSLSISCRGQHPLEWAWPGAQEAPATGDKDSEDTGVVRDCEGTDARPYCKVLLLHEVHANDTGSYVCYYKYIKARIEGTTAASSYVFVRDFEQPFINKPDTLLVNRKDAMWVPCLVSIPGLNVTLRSQSSVLWPDGQEVVWDDRRGMLVSTPLLHDALYLQCETTWGDQDFLSNPFLVHITGNELYDIQLLPRKSLELLVGEKLVLNCTVWAEFNSGVTFDWDYPGKQAERGKWVPERRSQQTHTELSSILTIHNVSQHDLGSYVCKANNGIQRFRESTEVIVHENPFISVEWLKGPILEATAGDELVKLPVKLAAYPPPEFQWYKDGKALSGRHSPHALVLKEVTEASTGTYTLALWNSAAGLRRNISLELVVNVPPQIHEKEASSPSIYSRHSRQALTCTAYGVPLPLSIQWHWRPWTPCKMFAQRSLRRRQQQDLMPQCRDWRAVTTQDAVNPIESLDTWTEFVEGKNKTVSKLVIQNANVSAMYKCVVSNKVGQDERLIYFYVTTIPDGFTIESKPSEELLEGQPVLLSCQADSYKYEHLRWYRLNLSTLHDAHGNPLLLDCKNVHLFATPLAASLEEVAPGARHATLSLSIPRVAPEHEGHYVCEVQDRRSHDKHCHKKYLSVQALEAPRLTQNLTDLLVNVSDSLEMQCLVAGAHAPSIVWYKDERLLEEKSGVDLADSNQKLSIQRVREEDAGRYLCSVCNAKGCVNSSASVAVEGSEDKGSMEIVILVGTGVIAVFFWVLLLLIFCNMRRPAHADIKTGYLSIIMDPGEVPLEEQCEYLSYDASQWEFPRERLHLGRVLGYGAFGKVVEASAFGIHKGSSCDTVAVKMLKEGATASEHRALMSELKILIHIGNHLNVVNLLGACTKPQGPLMVIVEFCKYGNLSNFLRAKRDAFSPCAEKSPEQRGRFRAMVELARLDRRRPGSSDRVLFARFSKTEGGARRASPDQEAEDLWLSPLTMEDLVCYSFQVARGMEFLASRKCIHRDLAARNILLSESDVVKICDFGLARDIYKDPDYVRKGSARLPLKWMAPESIFDKVYTTQSDVWSFGVLLWEIFSLGASPYPGVQINEEFCQRLRDGTRMRAPELATPAIRRIMLNCWSGDPKARPAFSELVEILGDLLQGRGLQEEEEVCMAPRSSQSSEEGSFSQVSTMALHIAQADAEDSPPSLQRHSLAARYYNWVSFPGCLARGAETRGSSRMKTFEEFPMTPTTYKGSVDNQTDSGMVLASEEFEQIESRHRQESGFSCKGPGQNVAVTRAHPDSQGRRRRPERGARGGQVFYNSEYGELSEPSEEDHCSPSARVTFFTDNSY,–,–,–,–,percentage of EdU-negative (MCF7; [4]): 25.2 ± 1.4%; percentage of EdU-negative (MCF7; [5]): 25.66 ± 0.24%; percentage of EdU-negative (hTERT-HMEC; [4]): 5.19 ± 0.73%; percentage of EdU-negative (hTERT-HMEC; [5]): 6.63 ± 1.2%
MQRLCVYVLIFALALAAFSEASWKPRSQQPDAPLGTGANRDLELPWLEQQGPASHHRRQLGPQGPPHLVADPSKKQGPWLEEEEEAYGWMDFGRRSAEDEN,–,–,–,–,percentage of EdU-negative (MCF7; [6]): 24.94 ± 0.082%; percentage of EdU-negative (MCF7; [7]): 29.3 ± 0.76%; percentage of EdU-negative (MCF7; [8]): 27.1 ± 1.1%; percentage of EdU-negative (MCF7; [9]): 26.7 ± 1.6%; percentage of EdU-negative (hTERT-HMEC; [6]): 4.78 ± 0.41%; percentage of EdU-negative (hTERT-HMEC; [7]): 4.9 ± 0.48%; percentage of EdU-negative (hTERT-HMEC; [8]): 7.18 ± 0.61%; percentage of EdU-negative (hTERT-HMEC; [9]): 10.5 ± 2%
MQRLRWLRDWKSSGRGLTAAKEPGARSSPLQAMRILQLILLALATGLVGGETRIIKGFECKPHSQPWQAALFEKTRLLCGATLIAPRWLLTAAHCLKPRYIVHLGQHNLQKEEGCEQTRTATESFPHPGFNNSLPNKDHRNDIMLVKMASPVSITWAVRPLTLSSRCVTAGTSCLISGWGSTSSPQLRLPHTLRCANITIIEHQKCENAYPGNITDTMVCASVQEGGKDSCQGDSGGPLVCNQSLQGIISWGQDPCAITRKPGVYTKVCKYVDWIQETMKNN [Q9UBX7],27.509 ± 0.019,25.5 ± 1.5,5.31 ± 0.64,6.15 ± 0.74,–
MQRVSGLLSWTLSRVLWLSGLSEPGAARQPRIMEEKALEVYDLIRTIRDPEKPNTLEELEVVSESCVEVQEINEEEYLVIIRFTPTVPHCSLATLIGLCLRVKLQRCLPFKHKLEIYISEGTHSTEEDINKQINDKERVAAAMENPNLREIVEQCVLEPD [Q9H5X1],24.6 ± 0.36,26.4 ± 0.66,5.26 ± 0.84,5.56 ± 0.12,–
MQSVQSTSFCLRKQCLCLTFLLLHLLGQVAATQRCPPQCPGRCPATPPTCAPGVRAVLDGCSCCLVCARQRGESCSDLEPCDESSGLYCDRSADPSNQTGICTAVEGDNCVFDGVIYRSGEKFQPSCKFQCTCRDGQIGCVPRCQLDVLLPEPNCPAPRKVEVPGECCEKWICGPDEEDSLGGLTLAAYRPEATLGVEVSDSSVNCIEQTTEWTACSKSCGMGFSTRVTNRNRQCEMLKQTRLCMVRPCEQEPEQPTDKKGKKCLRTKKSLKAIHLQFKNCTSLHTYKPRFCGVCSDGRCCTPHNTKTIQAEFQCSPGQIVKKPVMVIGTCTCHTNCPKNNEAFLQELELKTTRGKM,–,–,–,–,percentage of EdU-negative (MCF7; [10]): 26.6 ± 2.9%; percentage of EdU-negative (MCF7; protein concentration 0.175 µM): 26.7 ± 4.2%; percentage of EdU-negative (hTERT-HMEC; [10]): 4.53 ± 0.15%; percentage of EdU-negative (hTERT-HMEC; protein concentration 0.175 µM): 15.1 ± 2.2%
